The source of these data is patent US20250320302A1.

The assay deals with Spike protein of SARS-CoV-2 (isolate USA-WA1/2020) (SARS-CoV-2) (UniProt P0DTC2). Put plainly: cell-based or functional assay.

The substance S309 (antibody) registered a neutralization EC50 (viability of Vero E6 cells by CellTiter-Glo, 72 h after infection) of 0.858 µg/mL.
